Target: HLA-A*0201 (human)
Assay: inhibition of 125I-probe binding to purified HLA-A*0201
Conditions: remark: other sources report otherwise

IC50 [nM] | Binder
< 500 | KMVELVHFL [MAGE2.112 (9-mer)]
< 500 | YLQLVFGIEV [MAGE2.157 (10-mer)]

Target: HLA-A*2401 (human)
Assay: inhibition of 125I-labelled standard peptide binding to purified HLA
Conditions: not given

Binder | relative binding ratio (IC50 standard peptide / IC50 test peptide)
NYPLWSQSY [MAGE3 76-84 (position 76, 9 amino acids)] | 0.027
IFSKASSSL [MAGE3 150-158 (position 150, 9 amino acids)] | 0.016
EMLGSVVGNW [MAGE3 134-143 (position 134, 10 amino acids)] | 0.0017
NWQYFFPVIF [MAGE3 142-151 (position 142, 10 amino acids)] | 0.017
QYFFPVIF [MAGE3 144-151 (position 144, 8 amino acids)] | 0.12

Further lines, results first:

relative binding ratio (IC50 standard peptide / IC50 test peptide) | Binder
-0.0004 | IWEELSVL [MAGE3 221-228 (position 221, 8 amino acids)]
-0.0005 | VFEGREDSIL [MAGE3 230-239 (position 230, 10 amino acids)]
0.014 | LYIFATCL [MAGE3 175-182 (position 175, 8 amino acids)]
-0.0004 | HFVQENYL [MAGE3 249-256 (position 249, 8 amino acids)]
-0.0004 | VFEGREDSI [MAGE3 230-238 (position 230, 9 amino acids)]
0.012 | IFATCLGL [MAGE3 177-184 (position 177, 8 amino acids)]
0.048 | LYIFATCLGL [MAGE3 175-184 (position 175, 10 amino acids)]
0.0026 | SYDGLLGDNQI [MAGE3 185-195 (position 185, 11 amino acids)]

Target: HLA-A*0201 (human)
Assay: competition with 125I probe peptide, purified HLA
Conditions: remark: other sources report otherwise

IC50 [nM] | Binder
50 | YLQLVFGIEV [MAGE2.157 10-mer …]

Target: HLA-A*0301 (human)
Assay: competition with 125I probe peptide, purified HLA
Conditions: remark: other sources report otherwise

IC50 [nM] | Binder
20 | SVFSTTINK [MAGE2.69.V2K9 …]
5000 | YFFPVIFSK [MAGE3.138 9-mer …]
500 | LLGDNQIMPK [MAGE1/3.189 10-mer …]

Target: HLA-A*6801 (human)
Assay: competition with 125I probe peptide, purified HLA
Conditions: remark: other sources report otherwise

IC50 [nM] | Binder
400 | LVHFLLLK [MAGE2/3.116 8-mer LVHFLLLK]
8000 | LVHFLLLKY [MAGE2/3.116 9-mer …]

Target: HLA-A*3101 (human)
Assay: competition with 125I probe peptide, purified HLA
Conditions: remark: other sources report otherwise

IC50 [nM] | Binder
9000 | TVINYTLWK [MAGE2.73.V2K9 …]
6 | YVFPVIFSR [MAGE3.138.V2R …]
900 | ALIETSYVK [MAGE2.277 9-mer …]

Target: HLA-A*3301 (human)
Assay: competition with 125I probe peptide, purified HLA
Conditions: remark: other sources report otherwise

IC50 [nM] | Binder
9 | SMLEVFEGR [MAGE2.226 9-mer …]

Target: HLA-A*1101 (human)
Assay: competition with 125I probe peptide, purified HLA
Conditions: remark: other sources report otherwise

IC50 [nM] | Binder
40 | LVHFLLLK [MAGE2/3.116 8-mer LVHFLLLK]
3 | YVFPVIFSK [MAGE3.138.V2 …]

Target: HLA-A*0201 (human)
Assay: competition vs 125I probe peptide, purified HLA
Conditions: remark: other sources report otherwise

IC50 [nM] | Binder
50 | YLQLVFGIEV [MAGE2.157 …]
9.8 | KMVELVHFL [MAGE2.112 …]

Target: HLA-B*5101 (human)
Assay: competition vs 125I probe peptide, purified HLA
Conditions: remark: other sources report otherwise

IC50 [nM] | Binder
50 | VPISHLYILI [MAGE2.170.110 …]
70 | VPISMLYIL [MAGE2.170.M5 …]

Target: HLA-B*0702 (human)
Assay: competition vs 125I probe peptide, purified HLA
Conditions: remark: other sources report otherwise

IC50 [nM] | Binder
60 | YPLWSQSI [MAGE3.77.I8 YPLWSQSI]

Target: HLA-A2401 (human)
Assay: inhibition of 125I probe peptide binding to purified HLA
Conditions: not given

relative binding ratio (IC50 standard/IC50 peptide) | Binder
0.12 | QYFFPVIF [MAGE3 peptide, position 144, 8 amino acids]
0.012 | IFATCLGL [MAGE3 peptide, position 177, 8 amino acids]
0.0026 | SYDGLLGDNQI [MAGE3 peptide, position 185, 11 amino acids]
0.017 | NWQYFFPVIF [MAGE3 peptide, position 142, 10 amino acids]
0.016 | IFSKASSSL [MAGE3 peptide, position 150, 9 amino acids]
0.014 | LYIFATCL [MAGE3 peptide, position 175, 8 amino acids]
0.048 | LYIFATCLGL [MAGE3 peptide, position 175, 10 amino acids]
0.0017 | EMLGSVVGNW [MAGE3 peptide, position 134, 10 amino acids]

From patent US20040053822A1
